# Substitutions are numbered along the chain they refer to.
# B1: huSP34.2.1 Fab-HF (Fab, V domains shown)
# VH: EVQLVESGGGLVQPGGSLRLSCAASGFTFSTYAMNWVRQAPGKGLEWVGRIRSKYNNYATYYAASVKGRFTISRDDSKNSLYLQMNSLKTEDTAMYYCVRHGNFGNSYVSWFAVWGQGTLVTVSS
# VL: QAVVTQEPSLTVSPGGTVTLTCRSSTGAVTTSNYANWVQQKPGQAPRGLIGGTNKRAPWTPARFSGSLIGDKAALTLSGAQPEDEAEYYCALWYSNLWVFGGGTKLTVL
# B2: huSP34.2.2 Fab-HF (Fab, V domains shown)
# VH: B1 VH
# VL: B1 VL with R23G, N54S, K55N, I69L, D71G
# B3: huSP34.2.4 Fab-HF (Fab, V domains shown)
# VH: B1 VH
# VL: B1 VL with R23G, N33H, N54S, I69L, D71G, N96A
# B4: huSP34.2.5 Fab-HF (Fab, V domains shown)
# VH: B1 VH
# VL: B1 VL with R23G, S32G, N33H, N54S, K55N, I69L, D71G, N96A, L97R
# B5: huSP34.2.6 Fab-HF (Fab, V domains shown)
# VH: B1 VH
# VL: QAVVTQPPSLTVSPGGTVTLTCGSSTGAVTTGHYANWVQQKPGQAPRGLIGGTSNRAPGVPARFSGSLSGGKAALTISGAQPEDEAEYYCALWYSARWVFGGGTKLTVL
# B6: huSP34.3.1 Fab-HF (Fab, V domains shown)
# VH: B1 VH with S30N, A64D, K89R, M95V, N106H, V114Y
# VL: B1 VL
# B7: huSP34.3.2 Fab-HF (Fab, V domains shown)
# VH: B1 VH with S30N, A64D, K89R, M95V, N106H, V114Y
# VL: B1 VL with R23G, N54S, K55N, I69L, D71G
# B8: huSP34.3.5 Fab-HF (Fab, V domains shown)
# VH: B1 VH with S30N, A64D, K89R, M95V, N106H, V114Y
# VL: B5 VL with P7E, G59W, V60T, S69L, I77L
# B9: huSP34.3.7 Fab-HF (Fab, V domains shown)
# VH: B1 VH with S30N, A64D, K89R, M95V, N106H, V114Y
# VL: B1 VL with S32G, N33H, W59G, T60V, I69L, D71G, L77I
# B10: huSP34.3.8 Fab-HF (Fab, V domains shown)
# VH: B1 VH with S30N, A64D, K89R, M95V, N106H, V114Y
# VL: B5 VL with P7E, S54N, N55K, S69L, A96N
# B11: huSP34.3.9 Fab-HF (Fab, V domains shown)
# VH: B1 VH with S30N, A64D, K89R, M95V, N106H, V114Y
# VL: B5 VL with S54N, N55K, A96N, R97L
# B12: huSP34.3.10 Fab-HF (Fab, V domains shown)
# VH: B1 VH with S30N, A64D, K89R, M95V, N106H, V114Y
# VL: B5 VL with S54N, N55K, A96N
# B13: huSP34.4.1 Fab-HF (Fab, V domains shown)
# VH: B1 VH with K89R, M95V, N106H
# VL: B1 VL
# B14: huSP34.4.4 Fab-HF (Fab, V domains shown)
# VH: B1 VH with K89R, M95V, N106H
# VL: B1 VL with R23G, N33H, N54S, I69L, D71G, N96A
# B15: huSP34.4.5 Fab-HF (Fab, V domains shown)
# VH: B1 VH with K89R, M95V, N106H
# VL: B5 VL with P7E, G59W, V60T, S69L, I77L
# B16: huSP34.4.6 Fab-HF (Fab, V domains shown)
# VH: B1 VH with K89R, M95V, N106H
# VL: B5 VL
# B17: huSP34.5.1 Fab-HF (Fab, V domains shown)
# VH: B1 VH with A64D, D76N, S80T, K89R, T90A, M95V, N106H
# VL: B1 VL
# B18: huSP34.5.2 Fab-HF (Fab, V domains shown)
# VH: B1 VH with A64D, D76N, S80T, K89R, T90A, M95V, N106H
# VL: B1 VL with R23G, N54S, K55N, I69L, D71G
# B19: huSP34.5.4 Fab-HF (Fab, V domains shown)
# VH: B1 VH with A64D, D76N, S80T, K89R, T90A, M95V, N106H
# VL: B1 VL with R23G, N33H, N54S, I69L, D71G, N96A
# B20: huSP34.5.5 Fab-HF (Fab, V domains shown)
# VH: B1 VH with A64D, D76N, S80T, K89R, T90A, M95V, N106H
# VL: B5 VL with P7E, G59W, V60T, S69L, I77L
# B21: huSP34.11.7 Fab-HF (Fab, V domains shown)
# VH: B1 VH with K89R, M95V, N106H, V114Y
# VL: B1 VL with S32G, N33H, W59G, T60V, I69L, D71G, L77I
# B22: huSP34.11.8 Fab-HF (Fab, V domains shown)
# VH: B1 VH with K89R, M95V, N106H, V114Y
# VL: B5 VL with P7E, S54N, N55K, S69L, A96N
# B23: huSP34.11.9 Fab-HF (Fab, V domains shown)
# VH: B1 VH with K89R, M95V, N106H, V114Y
# VL: B5 VL with S54N, N55K, A96N, R97L
# B24: huSP34.11.10 Fab-HF (Fab, V domains shown)
# VH: B1 VH with K89R, M95V, N106H, V114Y
# VL: B5 VL with S54N, N55K, A96N
# B25: huSP34.12.7 Fab-HF (Fab, V domains shown)
# VH: B1 VH with G49A, K89R, M95V, N106H, V114Y
# VL: B1 VL with S32G, N33H, W59G, T60V, I69L, D71G, L77I
# B26: huSP34.12.8 Fab-HF (Fab, V domains shown)
# VH: B1 VH with G49A, K89R, M95V, N106H, V114Y
# VL: B5 VL with P7E, S54N, N55K, S69L, A96N
# B27: huSP34.12.9 Fab-HF (Fab, V domains shown)
# VH: B1 VH with G49A, K89R, M95V, N106H, V114Y
# VL: B5 VL with S54N, N55K, A96N, R97L
# B28: huSP34.12.10 Fab-HF (Fab, V domains shown)
# VH: B1 VH with G49A, K89R, M95V, N106H, V114Y
# VL: B5 VL with S54N, N55K, A96N
# B29: huSP34.13.7 Fab-HF (Fab, V domains shown)
# VH: B1 VH with S80T, K89R, M95V, N106H, V114Y
# VL: B1 VL with S32G, N33H, W59G, T60V, I69L, D71G, L77I
# B30: huSP34.13.9 Fab-HF (Fab, V domains shown)
# VH: B1 VH with S80T, K89R, M95V, N106H, V114Y
# VL: B5 VL with S54N, N55K, A96N, R97L
# B31: huSP34.5.6 Fab-HF (Fab, V domains shown)
# VH: B1 VH with A64D, D76N, S80T, K89R, T90A, M95V, N106H
# VL: B5 VL
# B32: mSP34 Fab-HF (Fab, V domains shown)
# VH: EVKLLESGGGLVQPKGSLKLSCAASGFTFNTYAMNWVRQAPGKGLEWVARIRSKYNNYATYYADSVKDRFTISRDDSQSILYLQMNNLKTEDTAMYYCVRHGNFGNSYVSWFAYWGQGTLVTVSA
# VL: QAVVTQESALTTSPGETVTLTCRSSTGAVTTSNYANWVQEKPDHLFTGLIGGTNKRAPGVPARFSGSLIGDKAALTITGAQTEDEAIYFCALWYSNLWVFGGGTKLTVLG
# notes: also called mSP34 chimeric Fab
# Experiments:
# [1] = target: T1, CD3 expressed on cell-surface of primary human T cells (human, UniProt P07766 23-207; P04234 22-171); experiment: flow cytometry competition vs murine SP34-AF488 on human T cells, n = 1
# T1 construct: also called cell-surface CD3; human CD3
# Method: (§1) Binding of humanized SP34 Fab variants to CD3 expressed on cell-surface of primary human T cells was evaluated in a flow cytometry-based competition assay.
# [2] = target: T1, CD3 expressed on cell-surface of …; experiment: flow cytometry competition vs murine SP34-AF488 on human T cells, n = 2
# Method: as §1
# [3] = target: T1, CD3 expressed on cell-surface of …; experiment: flow cytometry competition vs murine SP34-AF488 on human T cells, average
# Method: as §1
# [4] = target: T1, CD3 expressed on cell-surface of …; experiment: flow cytometry competition vs murine SP34-AF488 on human T cells, n = 1; remark: listed apart in the source
# Method: as §1
# (§2) A second round of huSP34 Fab variants were characterized using the same flow cytometry-based competition assay as described above.
# [5] = target: T1, CD3 expressed on cell-surface of …; experiment: flow cytometry competition vs murine SP34-AF488 on human T cells, n = 2; remark: listed apart in the source
# Method: as §1, §2
# [6] = target: T1, CD3 expressed on cell-surface of …; experiment: flow cytometry competition vs murine SP34-AF488 on human T cells, average; remark: listed apart in the source
# Method: as §1, §2
# T1 sequence (P07766 23-207 limits assumed, chain 1 of 2): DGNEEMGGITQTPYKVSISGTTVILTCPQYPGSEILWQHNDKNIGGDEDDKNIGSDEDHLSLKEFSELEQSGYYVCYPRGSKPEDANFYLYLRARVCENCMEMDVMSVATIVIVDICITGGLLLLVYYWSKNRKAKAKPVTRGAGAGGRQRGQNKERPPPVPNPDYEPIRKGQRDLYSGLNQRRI
# T1 sequence (P04234 22-171 limits assumed, chain 2 of 2): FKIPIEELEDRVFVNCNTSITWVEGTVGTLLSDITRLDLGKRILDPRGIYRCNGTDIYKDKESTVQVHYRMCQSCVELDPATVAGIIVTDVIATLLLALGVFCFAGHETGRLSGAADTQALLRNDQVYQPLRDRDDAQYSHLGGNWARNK
Binder,IC50 [1],IC50 [2],IC50 [3],IC50 [4],IC50 [5],IC50 [6]
B1,6.17 µg/mL,3.68 µg/mL,4.92 µg/mL,–,–,–
B2,> 20 µg/mL,16.6 µg/mL,16.6 µg/mL,–,–,–
B3,> 20 µg/mL,> 20 µg/mL,–,–,–,–
B4,> 20 µg/mL,> 20 µg/mL,–,–,–,–
B5,4.68 µg/mL,3.4 µg/mL,4.04 µg/mL,–,–,–
B6,3.56 µg/mL,2.22 µg/mL,2.89 µg/mL,–,–,–
B7,11.9 µg/mL,6.44 µg/mL,9.19 µg/mL,–,–,–
B8,12.9 µg/mL,10 µg/mL,11.4 µg/mL,–,–,–
B9,–,–,–,0.3 µg/mL,0.15 µg/mL,0.23 µg/mL
B10,–,–,–,0.2 µg/mL,0.1 µg/mL,0.15 µg/mL
B11,–,–,–,0.39 µg/mL,0.17 µg/mL,0.28 µg/mL
B12,–,–,–,0.2 µg/mL,0.09 µg/mL,0.15 µg/mL
B13,9.57 µg/mL,5.9 µg/mL,7.74 µg/mL,–,–,–
B14,> 20 µg/mL,> 20 µg/mL,–,–,–,–
B15,> 20 µg/mL,> 20 µg/mL,–,–,–,–
B16,18.5 µg/mL,4.2 µg/mL,11.4 µg/mL,–,–,–

Binder,IC50 [1],IC50 [2],IC50 [3],IC50 [4],IC50 [5],IC50 [6]
B17,> 20 µg/mL,> 20 µg/mL,–,–,–,–
B18,> 20 µg/mL,> 20 µg/mL,–,–,–,–
B19,> 20 µg/mL,> 20 µg/mL,–,–,–,–
B20,> 20 µg/mL,> 20 µg/mL,–,–,–,–
B21,–,–,–,0.45 µg/mL,0.18 µg/mL,0.32 µg/mL
B22,–,–,–,0.3 µg/mL,0.13 µg/mL,0.22 µg/mL
B23,–,–,–,0.57 µg/mL,0.22 µg/mL,0.4 µg/mL
B24,–,–,–,0.35 µg/mL,0.15 µg/mL,0.25 µg/mL
B25,–,–,–,0.77 µg/mL,0.39 µg/mL,0.58 µg/mL
B26,–,–,–,0.57 µg/mL,0.29 µg/mL,0.43 µg/mL
B27,–,–,–,0.97 µg/mL,0.49 µg/mL,0.73 µg/mL
B28,–,–,–,0.69 µg/mL,0.33 µg/mL,0.51 µg/mL
B29,–,–,–,0.43 µg/mL,0.18 µg/mL,0.31 µg/mL
B30,–,–,–,0.48 µg/mL,0.25 µg/mL,0.36 µg/mL
B31,> 20 µg/mL,> 20 µg/mL,–,–,–,–
B32,–,–,0.7 µg/mL,–,–,0.68 µg/mL
